Laboratory results from patent US20240158497A1 (published 2024).

T1: Macaca fascicularis GP130 extracellular domain expressed with a C-terminal myc-myc-hexahistidine tag (Macaca fascicularis, UniProt P40189 23-619 (human entry))
T1 construct: Monomeric reagent; also called mfGP130-mmH; mfGP130-MMH
T1 chain: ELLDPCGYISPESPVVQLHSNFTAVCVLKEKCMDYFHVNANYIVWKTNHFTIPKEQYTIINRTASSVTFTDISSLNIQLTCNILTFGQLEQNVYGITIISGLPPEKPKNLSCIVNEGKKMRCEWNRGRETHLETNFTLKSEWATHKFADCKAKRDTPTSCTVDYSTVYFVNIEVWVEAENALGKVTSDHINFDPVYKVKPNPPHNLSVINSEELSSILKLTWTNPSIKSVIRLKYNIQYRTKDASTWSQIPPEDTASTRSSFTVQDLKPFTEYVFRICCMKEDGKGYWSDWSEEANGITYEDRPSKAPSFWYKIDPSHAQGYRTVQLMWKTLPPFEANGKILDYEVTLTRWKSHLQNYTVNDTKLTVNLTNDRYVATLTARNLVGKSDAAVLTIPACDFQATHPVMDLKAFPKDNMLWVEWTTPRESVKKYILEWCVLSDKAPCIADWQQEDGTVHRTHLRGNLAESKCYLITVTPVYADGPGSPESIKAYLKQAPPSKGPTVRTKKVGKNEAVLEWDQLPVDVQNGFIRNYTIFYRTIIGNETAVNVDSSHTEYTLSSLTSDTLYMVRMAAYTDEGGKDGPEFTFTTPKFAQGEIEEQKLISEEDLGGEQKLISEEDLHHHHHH

T2: Macaca Fascicularis GP130 extracellular domain expressed with a C-terminal myc-myc-hexahistidine tag (Macaca fascicularis, UniProt P40189 23-619 (human entry))
T2 construct: also called mfGP130-MMH; mfGP130-mmH
T2 chain: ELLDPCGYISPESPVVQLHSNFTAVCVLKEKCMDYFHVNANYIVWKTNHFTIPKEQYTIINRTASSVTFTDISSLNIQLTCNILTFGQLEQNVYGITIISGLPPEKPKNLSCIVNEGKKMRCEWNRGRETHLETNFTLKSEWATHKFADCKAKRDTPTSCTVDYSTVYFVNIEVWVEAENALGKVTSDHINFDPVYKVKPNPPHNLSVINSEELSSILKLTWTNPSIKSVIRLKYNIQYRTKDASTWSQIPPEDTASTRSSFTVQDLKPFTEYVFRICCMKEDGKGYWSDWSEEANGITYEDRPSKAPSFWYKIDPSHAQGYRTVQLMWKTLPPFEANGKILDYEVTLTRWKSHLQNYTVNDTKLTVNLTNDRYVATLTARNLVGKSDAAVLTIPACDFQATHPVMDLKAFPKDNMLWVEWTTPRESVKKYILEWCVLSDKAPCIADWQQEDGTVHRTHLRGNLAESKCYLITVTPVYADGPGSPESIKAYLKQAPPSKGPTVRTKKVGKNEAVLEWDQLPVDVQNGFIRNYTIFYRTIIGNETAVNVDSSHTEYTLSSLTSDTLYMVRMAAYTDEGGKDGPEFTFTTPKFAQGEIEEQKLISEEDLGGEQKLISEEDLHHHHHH


What was measured:
[1] = target: T1, Macaca fascicularis GP130 extracellular …; experiment: SPR (Biacore 4000), mAb captured on anti-human Fc, 37 C
Experimental: (§1) Equilibrium dissociation constant (KD) for different GP130 reagents binding to purified anti-GP130 monoclonal antibodies were determined using a real-time surface plasmon resonance based Biacore 4000 biosensor. All binding studies were performed in 10 mM HEPES, 150 mM NaCl, 3 mM EDTA, and 0.05% v/v Surfactant Tween-20, pH 7.4 (HBS-ET) running buffer at 25° C. and 37° C. The Biacore sensor surface was first derivatized by amine coupling with a monoclonal mouse anti-human Fc antibody (GE, #BR-1008-39) to capture anti-GP130 monoclonal antibodies. […] Reagents tagged with “mmH” are monomeric, whereas reagents tagged with “mFc” are dimeric. Thus, for example, “hGP130-mmH” is also referred to as “monomeric human GP130,” and “hGP130-mFc” is also referred to as “dimeric human GP130.”
(§2) The association rate (k a) and dissociation rate (kd) were determined by fitting the real-time binding sensorgrams to a 1:1 binding model with mass transport limitation using Scrubber 2.0c curve-fitting software. Binding dissociation equilibrium constant (KD) and dissociative half-life (t ½) were calculated from the kinetic rates as: […]

[2] = target: T3, human GP130 extracellular domain expressed with a C-terminal myc-myc-hexahistidine tag (human, UniProt P40189 23-619); experiment: as above
T3 construct: Monomeric reagent; also called hGP130-mmH; hGP130-MMH
Experimental: as §1, §2

[3] = target: T1, Macaca fascicularis GP130 extracellular …; experiment: SPR (Biacore 4000), mAb captured on anti-human Fc, 25 C
Experimental: as §1, §2

[4] = target: T2, Macaca Fascicularis GP130 extracellular …; experiment: SPR, bsAb captured by anti-hFc, 37C
Experimental: (§3) Equilibrium dissociation constants (KD values) for LEPR and GP130 binding to purified anti-LEPR/GP130 bispecific antibodies were determined using a real-time surface plasmon resonance biosensor using a Biacore 4000 instrument. All binding studies were performed in 10 mM HEPES, 150 mM NaCl, 3 mM EDTA, and 0.05% v/v Surfactant Tween-20, pH 7.4 (HBS-ET) running buffer at 25° C. and 37° C. The Biacore sensor surface was first derivatized by amine coupling with a monoclonal mouse anti-human Fc antibody (GE, #BR-1008-39) to capture anti-LEPR/GP130 bispecific antibodies. […] Different concentrations of LEPR or GP130 reagents were first prepared in HBS-ET running buffer (100 nM-3.7 nM; 3-fold serial dilution) and were injected over anti-human Fc captured anti-LEPR/GP130 bispecific antibody surface for 4 minutes at a flow rate of 30 μL/minute, while the dissociation of bispecific antibody bound LEPR or GP130 reagent was monitored for 10 minutes in HBS-ET running buffer. Kinetic association (kₐ) and dissociation (kd) rate constants were determined by fitting the real-time binding sensorgrams to a 1:1 binding model with mass transport limitation using Scrubber 2.0c curve-fitting software. Binding dissociation equilibrium constants (KD) and dissociative half-lives (t ½) were calculated from the kinetic rate constants as: […]

[5] = target: T4, human GP130 extracellular domain expressed with a C-terminal myc-myc-hexahistidine tag (human, UniProt P40189 23-619); experiment: SPR, bsAb captured by anti-hFc, 37C
T4 construct: also called hGP130-MMH; hGP130-mmH
Experimental: as §3

[6] = target: T2, Macaca Fascicularis GP130 extracellular …; experiment: SPR, bsAb captured by anti-hFc, 25C
Experimental: as §3

[7] = target: T4, human GP130 extracellular domain …; experiment: SPR, bsAb captured by anti-hFc, 25C
Experimental: as §3

Row | Binder | 100 nM Ag Bound [1] [RU] | Kd [1] [nM] | koff [1] [s⁻¹] | kon [1] [M⁻¹ s⁻¹] | t½ [1] [s] | 100 nM Ag Bound [2] [RU] | Kd [2] [nM] | koff [2] [s⁻¹] | kon [2] [M⁻¹ s⁻¹] | t½ [2] [s] | 100 nM Ag Bound [3] [RU] | Kd [3] [nM] | koff [3] [s⁻¹] | kon [3] [M⁻¹ s⁻¹] | t½ [3] [s] | 100 nM mfGP130-MMH Bound (RU) [4] [RU] | Kd [4] [nM] | koff [4] [s⁻¹] | kon [4] [M⁻¹ s⁻¹] | t½ [4] [s] | other results
1 | MAb16618 (antibody, V domains shown) VH: QVQLQESGPGLVKPSETLSLTCTVSGGSISNYYWTWIRQPPGKGLEWIGHISNSGTTNYNPSLKSRVTISVDTSKNQFSLKLTSVTAADTAVYYCARLPLGIAAVDTDYYYYFGMDVWGQGTTVTVSS VL: not shown | 26 | 90.3 | 0.12 | 1.33e+06 | 6 | 36 | 103 | 0.112 | 1.08e+06 | 6 | 40 | 166 | 0.0621 | 374000 | 12 |  |  |  |  |  | 
2 | bsAb19156D (bispecific antibody, V domains shown, LEPR x GP130 bispecific with common light chain) VH 1: QVQLVESGGGVVQPGRSLRLSCTASGFTFSSYAMYWVRQAPGKGLEWVSVIYYDGSYKYYADSVKGRFTISRDNSKNTLYLQMDSLRAEDTAVYYCASYNWNYWYFDFWGRGTLVTVSS VH 2: QVQLVESGGGLVKPGGSLRLSCAASGFTFSDYYMTWIRQTPGKGLDWVSYISSSGTNKYNADSVKGRFTISRDNAKNSLYLQMNSLRAEDTAVYYCVRDPPWGMDVWGQGTTVTVSS VL: not shown |  |  |  |  |  |  |  |  |  |  |  |  |  |  |  | 26 | 87.6 | 0.00767 | 87500 | 90 | 100 nM hGP130-MMH Bound (RU) [5]: 24 RU; Kd [5]: 95 nM; koff [5]: 0.00797 s⁻¹; kon [5]: 83900 M⁻¹ s⁻¹; t½ [5]: 84 s; 100 nM mfGP130-MMH Bound (RU) [6]: 30 RU; Kd [6]: 22.1 nM; koff [6]: 0.00162 s⁻¹; kon [6]: 73300 M⁻¹ s⁻¹; t½ [6]: 420 s; 100 nM hGP130-MMH Bound (RU) [7]: 27 RU; Kd [7]: 24.7 nM; koff [7]: 0.00221 s⁻¹; kon [7]: 89500 M⁻¹ s⁻¹; t½ [7]: 300 s
3 | MAb16614 (antibody, V domains shown) VH: QVQLVESGGGVVQPGGSLRLSCAASGFTFSTYDIHWVRQAPGKGLEWVAVISFDGSNRNYGDSVKGRFTISRDNSDNTLFLEMNNLRFEDTAVYYCAKEGYGVDFQHWGQGTLVTVSS VL: not shown | 8 | 72.2 | 0.0267 | 370000 | 24 | 10 | 121 | 0.03 | 247000 | 24 | 16 | 139 | 0.0104 | 74400 | 66 |  |  |  |  |  | 
4 | bsAb19757D (bispecific antibody, V domains shown, LEPR x GP130 bispecific with common light chain) VH 1: EVQLVESGGGLVQPGGSLRLSCVASGFTFNKYDMHWVRQTTGKGLEWVSGIDTDGDTYYPGSVKGRFTISRENAENSLYLQMNGLRVGDTAVYYCARWPWSGFYGAFDIWGQGTMVTVSS VH 2: EVQLVESGGGVVRPGGSLRLSCTASGFTFDDYGMSWVRQAPGKGLEWVSGINWNGGRTEYADAVKGRFIISRDNAKNSLYLQMNSLRAEDTALYFCARTELRWDYWGQGTLVTVSS VL: not shown |  |  |  |  |  |  |  |  |  |  |  |  |  |  |  | 14 | 450 | 0.0598 | 133000 | 12 | 100 nM hGP130-MMH Bound (RU) [5]: 16 RU; Kd [5]: 358 nM; koff [5]: 0.0635 s⁻¹; kon [5]: 178000 M⁻¹ s⁻¹; t½ [5]: 12 s; 100 nM mfGP130-MMH Bound (RU) [6]: 15 RU; Kd [6]: 188 nM; koff [6]: 0.0204 s⁻¹; kon [6]: 108000 M⁻¹ s⁻¹; t½ [6]: 36 s; 100 nM hGP130-MMH Bound (RU) [7]: 16 RU; Kd [7]: 196 nM; koff [7]: 0.0218 s⁻¹; kon [7]: 112000 M⁻¹ s⁻¹; t½ [7]: 30 s
5 | MAb16622 (antibody, V domains shown) VH: EVQLVESGGGVVRPGGSLRLSCTASGFTFDDYGMSWVRQAPGKGLEWVSGINWNGGRTEYADAVKGRFIISRDNAKNSLYLQMNSLRAEDTALYFCARTELRWDYWGQGTLVTVSS VL: not shown | 28 | 198 | 0.0537 | 272000 | 12 | 30 | 225 | 0.0574 | 255000 | 12 | 34 | 151 | 0.02 | 132000 | 36 |  |  |  |  |  | 
6 | bsAb19758D (bispecific antibody, V domains shown, LEPR x GP130 bispecific with common light chain) VH 1: EVQLVESGGGLVQPGGSLRLSCVASGFTFNKYDMHWVRQTTGKGLEWVSGIDTDGDTYYPGSVKGRFTISRENAENSLYLQMNGLRVGDTAVYYCARWPWSGFYGAFDIWGQGTMVTVSS VH 2: EVQLVESGGGLVQSGGSLRLSCAASGFTFSRYEMNWVRQAPGKGLEWVAYISNTGTTRDYSDSVKGRFTISRDNAKNSLYLQMSSLRVEDTAVYYCVREKFSGTSDWFDPWGQGTLVTVSS VL: not shown |  |  |  |  |  |  |  |  |  |  |  |  |  |  |  | 45 | 18.2 | 0.0073 | 402000 | 96 | 100 nM hGP130-MMH Bound (RU) [5]: 50 RU; Kd [5]: 16.7 nM; koff [5]: 0.00747 s⁻¹; kon [5]: 448000 M⁻¹ s⁻¹; t½ [5]: 90 s; 100 nM mfGP130-MMH Bound (RU) [6]: 46 RU; Kd [6]: 16.5 nM; koff [6]: 0.00507 s⁻¹; kon [6]: 307000 M⁻¹ s⁻¹; t½ [6]: 138 s; 100 nM hGP130-MMH Bound (RU) [7]: 51 RU; Kd [7]: 14.6 nM; koff [7]: 0.00457 s⁻¹; kon [7]: 313000 M⁻¹ s⁻¹; t½ [7]: 150 s
